The results in this text go back to ChEMBL document CHEMBL3526024, “Oral availability of cefadroxil depends on ABCC3 and ABCC4” (Drug Metab Dispos, 2012).

Substrate in data set [1]: CC1=C(C(=O)O)N2C(=O)[C@@H](NC(=O)[C@H](N)c3ccc(O)cc3)[C@H]2SC1
The data set is described as follows: Activity of recombinant human ABCC3 expressed in baculovirus infected insect Sf21 cell plasma membrane vesicles assessed as transporter-mediated drug uptake by liquid scintillation counting analysis in presence of ATP. Format: ADME.

Substrate in data set [2]: CC1=C(C(=O)O)N2C(=O)[C@@H](NC(=O)[C@H](N)c3ccc(O)cc3)[C@H]2SC1
The data set can be described thus: Activity of recombinant human ABCC4 expressed in baculovirus infected insect Sf21 cell plasma membrane vesicles assessed as transporter-mediated drug uptake by liquid scintillation counting analysis in presence of ATP. Format: ADME.

Substrate in data set [3]: CO/N=C(\C(=O)N[C@@H]1C(=O)N2C(C(=O)O)=CCS[C@H]12)c1csc(N)n1
The data set can be described thus: (§1) Activity of recombinant human MRP4 expressed in adenovirus infected HEK293 cell plasma membrane vesicles assessed as transporter-mediated drug uptake after 2 mins by Michaelis-Menten plot analysis in presence of ATP. Format: ADME, cell-based.

Substrate in data set [4]: Cc1nnc(SCC2=C(C(=O)O)N3C(=O)[C@@H](NC(=O)Cn4cnnn4)[C@H]3SC2)s1
The description is as §1. Format: ADME, cell-based.

Substrate in data set [5]: CC1=C(C(=O)O)N2C(=O)[C@@H](NC(=O)[C@H](N)c3ccc(O)cc3)[C@H]2SC1
The data set is described as follows: Activity of recombinant human ABCC1 expressed in baculovirus infected insect Sf21 cell plasma membrane vesicles assessed as transporter-mediated drug uptake by liquid scintillation counting analysis in presence of ATP. Format: ADME.

B1: ATP-binding cassette sub-family C member 3 (Homo sapiens) (protein)
chain: MDALCGSGELGSKFWDSNLSVHTENPDLTPCFQNSLLAWVPCIYLWVALPCYLLYLRHHCRGYIILSHLSKLKMVLGVLLWCVSWADLFYSFHGLVHGRAPAPVFFVTPLVVGVTMLLATLLIQYERLQGVQSSGVLIIFWFLCVVCAIVPFRSKILLAKAEGEISDPFRFTTFYIHFALVLSALILACFREKPPFFSAKNVDPNPYPETSAGFLSRLFFWWFTKMAIYGYRHPLEEKDLWSLKEEDRSQMVVQQLLEAWRKQEKQTARHKASAAPGKNASGEDEVLLGARPRPRKPSFLKALLATFGSSFLISACFKLIQDLLSFINPQLLSILIRFISNPMAPSWWGFLVAGLMFLCSMMQSLILQHYYHYIFVTGVKFRTGIMGVIYRKALVITNSVKRASTVGEIVNLMSVDAQRFMDLAPFLNLLWSAPLQIILAIYFLWQNLGPSVLAGVAFMVLLIPLNGAVAVKMRAFQVKQMKLKDSRIKLMSEILNGIKVLKLYAWEPSFLKQVEGIRQGELQLLRTAAYLHTTTTFTWMCSPFLVTLITLWVYVYVDPNNVLDAEKAFVSVSLFNILRLPLNMLPQLISNLTQASVSLKRIQQFLSQEELDPQSVERKTISPGYAITIHSGTFTWAQDLPPTLHSLDIQVPKGALVAVVGPVGCGKSSLVSALLGEMEKLEGKVHMKGSVAYVPQQAWIQNCTLQENVLFGKALNPKRYQQTLEACALLADLEMLPGGDQTEIGEKGINLSGGQRQRVSLARAVYSDADIFLLDDPLSAVDSHVAKHIFDHVIGPEGVLAGKTRVLVTHGISFLPQTDFIIVLADGQVSEMGPYPALLQRNGSFANFLCNYAPDEDQGHLEDSWTALEGAEDKEALLIEDTLSNHTDLTDNDPVTYVVQKQFMRQLSALSSDGEGQGRPVPRRHLGPSEKVQVTEAKADGALTQEEKAAIGTVELSVFWDYAKAVGLCTTLAICLLYVGQSAAAIGANVWLSAWTNDAMADSRQNNTSLRLGVYAALGILQGFLVMLAAMAMAAGGIQAARVLHQALLHNKIRSPQSFFDTTPSGRILNCFSKDIYVVDEVLAPVILMLLNSFFNAISTLVVIMASTPLFTVVILPLAVLYTLVQRFYAATSRQLKRLESVSRSPIYSHFSETVTGASVIRAYNRSRDFEIISDTKVDANQRSCYPYIISNRWLSIGVEFVGNCVVLFAALFAVIGRSSLNPGLVGLSVSYSLQVTFALNWMIRMMSDLESNIVAVERVKEYSKTETEAPWVVEGSRPPEGWPPRGEVEFRNYSVRYRPGLDLVLRDLSLHVHGGEKVGIVGRTGAGKSSMTLCLFRILEAAKGEIRIDGLNVADIGLHDLRSQLTIIPQDPILFSGTLRMNLDPFGSYSEEDIWWALELSHLHTFVSSQPAGLDFQCSEGGENLSVGQRQLVCLARALLRKSRILVLDEATAAIDLETDNLIQATIRTQFDTCTVLTIAHRLNTIMDYTRVLVLDKGVVAEFDSPANLIAARGIFYGMARDAGLA
Take B1: in data set [1], the Michaelis-Menten constant (Km) (usually the substrate concentration at which the rate is half of its maximum) worked out at 2500 µM and the Vmax (usually the top rate of the reaction or transport when substrate is in excess) is 0.0006 µmol/min.

B2: ATP-binding cassette sub-family C member 4 (Homo sapiens) (protein)
chain: MLPVYQEVKPNPLQDANLCSRVFFWWLNPLFKIGHKRRLEEDDMYSVLPEDRSQHLGEELQGFWDKEVLRAENDAQKPSLTRAIIKCYWKSYLVLGIFTLIEESAKVIQPIFLGKIINYFENYDPMDSVALNTAYAYATVLTFCTLILAILHHLYFYHVQCAGMRLRVAMCHMIYRKALRLSNMAMGKTTTGQIVNLLSNDVNKFDQVTVFLHFLWAGPLQAIAVTALLWMEIGISCLAGMAVLIILLPLQSCFGKLFSSLRSKTATFTDARIRTMNEVITGIRIIKMYAWEKSFSNLITNLRKKEISKILRSSCLRGMNLASFFSASKIIVFVTFTTYVLLGSVITASRVFVAVTLYGAVRLTVTLFFPSAIERVSEAIVSIRRIQTFLLLDEISQRNRQLPSDGKKMVHVQDFTAFWDKASETPTLQGLSFTVRPGELLAVVGPVGAGKSSLLSAVLGELAPSHGLVSVHGRIAYVSQQPWVFSGTLRSNILFGKKYEKERYEKVIKACALKKDLQLLEDGDLTVIGDRGTTLSGGQKARVNLARAVYQDADIYLLDDPLSAVDAEVSRHLFELCICQILHEKITILVTHQLQYLKAASQILILKDGKMVQKGTYTEFLKSGIDFGSLLKKDNEESEQPPVPGTPTLRNRTFSESSVWSQQSSRPSLKDGALESQDTENVPVTLSEENRSEGKVGFQAYKNYFRAGAHWIVFIFLILLNTAAQVAYVLQDWWLSYWANKQSMLNVTVNGGGNVTEKLDLNWYLGIYSGLTVATVLFGIARSLLVFYVLVNSSQTLHNKMFESILKAPVLFFDRNPIGRILNRFSKDIGHLDDLLPLTFLDFIQTLLQVVGVVSVAVAVIPWIAIPLVPLGIIFIFLRRYFLETSRDVKRLESTTRSPVFSHLSSSLQGLWTIRAYKAEERCQELFDAHQDLHSEAWFLFLTTSRWFAVRLDAICAMFVIIVAFGSLILAKTLDAGQVGLALSYALTLMGMFQWCVRQSAEVENMMISVERVIEYTDLEKEAPWEYQKRPPPAWPHEGVIIFDNVNFMYSPGGPLVLKHLTALIKSQEKVGIVGRTGAGKSSLISALFRLSEPEGKIWIDKILTTEIGLHDLRKKMSIIPQEPVLFTGTMRKNLDPFNEHTDEELWNALQEVQLKETIEDLPGKMDTELAESGSNFSVGQRQLVCLARAILRKNQILIIDEATANVDPRTDELIQKKIREKFAHCTVLTIAHRLNTIIDSDKIMVLDSGRLKEYDEPYVLLQNKESLFYKMVQQLGKAEAAALTETAKQVYFKRNYPHIGHTDHMVTNTSNGQPSTLTIFETAL
Regarding B2, the Michaelis-Menten constant (Km) was 250 µM in data set [2], 18 µM in data set [3] and 81 µM in data set [4]. In addition, in data set [2], the maximum rate (Vmax) turned out to be 0.0012 µmol/min.

B3: Multidrug resistance-associated protein 1 (Homo sapiens) (protein)
chain: MALRGFCSADGSDPLWDWNVTWNTSNPDFTKCFQNTVLVWVPCFYLWACFPFYFLYLSRHDRGYIQMTPLNKTKTALGFLLWIVCWADLFYSFWERSRGIFLAPVFLVSPTLLGITMLLATFLIQLERRKGVQSSGIMLTFWLVALVCALAILRSKIMTALKEDAQVDLFRDITFYVYFSLLLIQLVLSCFSDRSPLFSETIHDPNPCPESSASFLSRITFWWITGLIVRGYRQPLEGSDLWSLNKEDTSEQVVPVLVKNWKKECAKTRKQPVKVVYSSKDPAQPKESSKVDANEEVEALIVKSPQKEWNPSLFKVLYKTFGPYFLMSFFFKAIHDLMMFSGPQILKLLIKFVNDTKAPDWQGYFYTVLLFVTACLQTLVLHQYFHICFVSGMRIKTAVIGAVYRKALVITNSARKSSTVGEIVNLMSVDAQRFMDLATYINMIWSAPLQVILALYLLWLNLGPSVLAGVAVMVLMVPVNAVMAMKTKTYQVAHMKSKDNRIKLMNEILNGIKVLKLYAWELAFKDKVLAIRQEELKVLKKSAYLSAVGTFTWVCTPFLVALCTFAVYVTIDENNILDAQTAFVSLALFNILRFPLNILPMVISSIVQASVSLKRLRIFLSHEELEPDSIERRPVKDGGGTNSITVRNATFTWARSDPPTLNGITFSIPEGALVAVVGQVGCGKSSLLSALLAEMDKVEGHVAIKGSVAYVPQQAWIQNDSLRENILFGCQLEEPYYRSVIQACALLPDLEILPSGDRTEIGEKGVNLSGGQKQRVSLARAVYSNADIYLFDDPLSAVDAHVGKHIFENVIGPKGMLKNKTRILVTHSMSYLPQVDVIIVMSGGKISEMGSYQELLARDGAFAEFLRTYASTEQEQDAEENGVTGVSGPGKEAKQMENGMLVTDSAGKQLQRQLSSSSSYSGDISRHHNSTAELQKAEAKKEETWKLMEADKAQTGQVKLSVYWDYMKAIGLFISFLSIFLFMCNHVSALASNYWLSLWTDDPIVNGTQEHTKVRLSVYGALGISQGIAVFGYSMAVSIGGILASRCLHVDLLHSILRSPMSFFERTPSGNLVNRFSKELDTVDSMIPEVIKMFMGSLFNVIGACIVILLATPIAAIIIPPLGLIYFFVQRFYVASSRQLKRLESVSRSPVYSHFNETLLGVSVIRAFEEQERFIHQSDLKVDENQKAYYPSIVANRWLAVRLECVGNCIVLFAALFAVISRHSLSAGLVGLSVSYSLQVTTYLNWLVRMSSEMETNIVAVERLKEYSETEKEAPWQIQETAPPSSWPQVGRVEFRNYCLRYREDLDFVLRHINVTINGGEKVGIVGRTGAGKSSLTLGLFRINESAEGEIIIDGINIAKIGLHDLRFKITIIPQDPVLFSGSLRMNLDPFSQYSDEEVWTSLELAHLKDFVSALPDKLDHECAEGGENLSVGQRQLVCLARALLRKTKILVLDEATAAVDLETDDLIQSTIRTQFEDCTVLTIAHRLNTIMDYTRVIVLDKGEIQEYGAPSDLLQQRGLFYSMAKDAGLV
With B3, in data set [5], the Km is 3900 µM and the Vmax was 0.0124 µmol/min.
